Assay [1] deals with T1, Human Tau 2N4R, wild type, recombinant full length (human, UniProt P10636 2-758).
T1 construct: Full length 2N4R isoform; monomer in SPR and ELISA; heparin-induced aggregates or seeds in the functional assays; also called Tau441; Tau-441
As to the kind of experiment: direct ELISA on coated 2N4R Tau.

Assay [2] addresses T1, Human Tau 2N4R, wild type, recombinant …. The assay can be described thus: direct ELISA on coated 2N4R Tau. The method, then: To test direct binding to Tau, 2N4R Tau was coated on 96-well plates and various concentrations of humanized mAbs were added to the wells. MAbs bound to Tau were detected with either an HRP-conjugated anti-mouse antibody (mouse [ms]7G6) or anti-human antibody (remaining samples). Samples were incubated for 1 h at room temperature in 96-well plates coated with 2N4R Tau. Following washing, HRP-conjugated anti-mouse or anti-human detection antibodies were added to the wells. The anti-mouse antibody was used to detect ms7G6. The amount of HRP activity in each well was measured by QuantaBlu fluorescent substrate and the RFUs were detected by a SpectraMax M5 plate reader.
Tau binding was analyzed by a direct ELISA as above. Samples were incubated for 1 hour at room temperature in 96-well plates coated with wild-type 2N4R Tau. After a wash step, HRP-conjugated anti-mouse or anti-human detection antibodies were added to the wells. The anti-mouse antibody was used to detect ms7G6. The amount of HRP activity in each well was measured by QuantaBlu fluorescent substrate and the RFUs were detected by a SpectraMax M5 plate reader. […] Therefore, Vκ Glu34 was critical for antigen binding.
This is another data set of the same source.

Where two headings read alike, the source gives them in different places.

T1 sequence (P10636 other isoform, or with tags, fused parts or gaps limits assumed): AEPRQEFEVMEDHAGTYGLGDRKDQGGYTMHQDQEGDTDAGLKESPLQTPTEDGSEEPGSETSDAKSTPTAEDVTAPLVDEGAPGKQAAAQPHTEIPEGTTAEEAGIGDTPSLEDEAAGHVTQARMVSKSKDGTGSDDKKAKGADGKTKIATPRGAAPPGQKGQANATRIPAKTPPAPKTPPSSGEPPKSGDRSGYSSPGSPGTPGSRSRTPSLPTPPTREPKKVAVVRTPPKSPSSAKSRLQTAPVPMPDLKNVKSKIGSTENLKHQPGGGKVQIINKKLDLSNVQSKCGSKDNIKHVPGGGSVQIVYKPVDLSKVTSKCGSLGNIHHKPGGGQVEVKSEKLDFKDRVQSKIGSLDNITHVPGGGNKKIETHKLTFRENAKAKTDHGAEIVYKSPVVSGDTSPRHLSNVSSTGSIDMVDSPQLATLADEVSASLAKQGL

B1: 7G6-HCzu12-LCzu17 (antibody, human IgG1, kappa, V domains shown)
VH: EVQLLESGGGLVQPGGSLRLSCAASGYTFTTYWITWVRQAPGKGLEWVGDIYPGSSICNYNEKFKSRFTISVDNSKSTAYLQMNSLRAEDTAVYYCAREDGYDAWFAYWGQGTLVTVSS
VL: DVQMTQSPSSLSASVGDRVTITCRSSQSIVHSNGNTYLNWYQQKPGKAPKLLISKVSNRFSGVPSRFSGSGSGTDFTLTISSLQPEDFATYYCFQGSHVPFTFGQGTKLEIKR
notes: humanized, human IgG1 kappa; also called 7G6-LCzu17
On to B1, for which the binding result in assay [1] is recorded as “no binding”.

B2: 7G6-HCzu5-LCzu9 (antibody, human IgG1, kappa, V domains shown)
VH: QVQLVQSGAEVKKPGASVKVSCKASGYTFTTYWITWVRQAPGQGLEWMGDIYPGSSISNYNEKFKSRVTMTVDTSTSTAYMELSSLRSEDTAVYYCAREDGYDAWFAYWGQGTLVTVSS
VL: DVVMTQSPLSLPVTLGQPASISCRSSQSIVHSNGNTYLNWFQQRPGQSPRRLISKVSNRFSGVPDRFSGSGSGTDFTLKISRVEAEDVGVYYCFQGSHVPFTFGQGTKLEIKR
notes: humanized, human IgG1 kappa; also called 7G6-LCzu9
For B2, in assay [2], the binding result is reported as “no binding”.

Source of the values: patent publication US20190112365A1 (EISAI R AND D MANAGEMENT, published 2019).
